Test results published in paper PMC7385628, “Molecular determinants for dsDNA translocation by the transcription-repair coupling and evolvability factor Mfd”.

How the values were obtained:
[1] = tested on: Mfd D7-AAA;H842A (Escherichia coli); assay: fluorescence anisotropy; conditions: 10 nM labeled DNA, 2 mM nucleotide (ADP-AlFx from ADP, 10 mM NaF, 2 mM AlCl3), buffer, pH and temperature not in the material. …
Mfd wild type [2] = biological target: T1, Mfd wild type (Escherichia coli, UniProt P30958 1-1148); assay: fluorescence anisotropy; conditions: 10 nM labeled DNA, 2 mM nucleotide (ADP-AlFx from ADP, 10 mM NaF, 2 mM AlCl3), buffer, pH and temperature not in the material. …
Mfd wild type [3] = biological target: T1, Mfd wild type; assay: cryo-EM structure (5.5 A); 2 mM ADP, 10 mM NaF, 1 mM AlCl3, Mg2+; Fluorescence anisotropy, 10 nM labeled DNA, 2 mM nucleotide (ADP-AlFx from ADP, 10 mM NaF, 2 mM AlCl3); buffer, pH and temperature not in the material. Cryo-EM: Mfd in 20 mM Tris-HCl pH 8, 100 mM NaCl, 20 mM MgCl2, 2 mM TCEP; conditions: protein: recombinant; tags: N-terminal His tag, cleaved with PreScission; blunt

T1 sequence (P30958 whole entry): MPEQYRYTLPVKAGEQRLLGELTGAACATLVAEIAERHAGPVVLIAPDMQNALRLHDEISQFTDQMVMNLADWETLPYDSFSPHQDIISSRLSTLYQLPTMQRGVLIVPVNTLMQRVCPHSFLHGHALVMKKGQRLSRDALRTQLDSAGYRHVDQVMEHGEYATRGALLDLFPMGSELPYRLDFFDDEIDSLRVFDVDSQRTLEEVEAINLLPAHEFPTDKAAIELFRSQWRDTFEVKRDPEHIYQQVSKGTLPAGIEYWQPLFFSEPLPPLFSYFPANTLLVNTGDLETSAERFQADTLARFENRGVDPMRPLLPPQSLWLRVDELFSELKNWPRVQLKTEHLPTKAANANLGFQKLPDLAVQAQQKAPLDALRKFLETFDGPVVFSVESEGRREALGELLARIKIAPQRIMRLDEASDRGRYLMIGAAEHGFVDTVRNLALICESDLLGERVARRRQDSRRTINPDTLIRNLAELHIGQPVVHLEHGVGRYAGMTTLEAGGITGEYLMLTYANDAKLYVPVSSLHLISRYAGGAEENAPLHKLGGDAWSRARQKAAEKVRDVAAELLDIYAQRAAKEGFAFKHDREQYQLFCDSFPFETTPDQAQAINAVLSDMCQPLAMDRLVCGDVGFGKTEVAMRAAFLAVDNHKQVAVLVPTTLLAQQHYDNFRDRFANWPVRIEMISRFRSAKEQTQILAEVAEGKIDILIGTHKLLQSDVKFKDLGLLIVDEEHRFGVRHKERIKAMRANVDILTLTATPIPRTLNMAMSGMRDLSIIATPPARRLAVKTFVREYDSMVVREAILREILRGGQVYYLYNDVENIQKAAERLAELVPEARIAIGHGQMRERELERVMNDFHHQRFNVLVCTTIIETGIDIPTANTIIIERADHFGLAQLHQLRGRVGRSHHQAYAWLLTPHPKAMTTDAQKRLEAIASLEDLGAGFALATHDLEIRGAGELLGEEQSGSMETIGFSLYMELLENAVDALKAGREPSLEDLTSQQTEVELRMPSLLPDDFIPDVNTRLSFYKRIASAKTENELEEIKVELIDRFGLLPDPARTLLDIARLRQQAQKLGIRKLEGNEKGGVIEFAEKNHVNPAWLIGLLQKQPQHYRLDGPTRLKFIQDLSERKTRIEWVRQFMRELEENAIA

HEX-labeled 40mer dsDNA
Kd [1]: 127 nM
Kd ([1]; 2 mM ATPgS): 927 nM
Kd (Mfd wild type [2]; 2 mM ADP-AlFx): 24 nM
Kd (Mfd wild type [2]; 2 mM ATPgS): 151 nM

B1: 21mer dsDNA (cryo-EM) (dsDNA)
DNA 1: ATAGGATACTTACAGCCATCG
DNA 2: CGATGGCTGTAAGTATCCTAT
binding result (Mfd wild type [3]): binds
